Measured values reported in patent US11819542B2, “Immunotherapeutic method for treating lung cancer by administering a polypeptide comprising an epitope of hZP3” (Pantarhei Bioscience B.V., priority 2017, dated 2023).

Key:
[1] = test system: hZP3-positive B16-HLA-A2 melanoma tumor; assay: Therapeutic immunization of HLA-A2 transgenic mice with ZP3-expressing tumor: tumor size; type: in vivo; details: female HLA-A2 transgenic mice, ZP3 expressing tumors, 2 s.c. immunizations (prime D7-10, boost D14-17) plus GM-CSF/CpG, tumor size increased with PBS
Experimental: (§1) FIG. 5: Schedule for administration of hZP3-positive B16-HLA-A2 melanoma tumor cells and an hZP3 peptide-mixture (comprising peptides 4, 5, 6, 8 and 9 in Table 5), or rhZP3^1-383 protein to HLA-A2 transgenic mice. On Day 0 (D0), a tumor injection with 10^6 cells/mouse was given subcutaneously (s.c.). Thereafter, the prime injection was administered 7 to 10 days (D7-10) and a boost injection on Day 14 to Day 17 (D14-17). Tumor size was monitored after treatment. At Day 30 to 35, mice were sacrificed to determine hZP3 specific CD8^+ responses (ELISpot).
An in vivo pre-clinical efficacy study has been conducted to assess the immune response and the anti-tumor response after immunization with rhZP3 polypeptide (aa 1-383 with his-tag) and 5 different ZP3 epitopes. The hZP3 epitopes were selected based on CD8^+ T cell responses observed during previously performed immunogenicity experiments with rhZP3 polypeptide (aa 1-383) and with pools of peptides comprising hZP3 epitopes as indicated (see Table 5) combined with different adjuvants (data not shown). The peptides were synthesized by Pepscan (the Netherlands) at a purity >96%. […]
(§2) On Day 0 (DO), a tumor injection with 10^6 cells/mouse (s.c.) was given. […] Tumor size was monitored after treatment. […]

[2] = test system: hZP3 specific CD8^+ responses; assay: ZP3 specific CD8+ T cell response after immunization (interferon-γ ELISpot); type: in vivo; details: HLA-A2 transgenic mice with ZP3 expressing tumors, after prime and boost immunization plus GM-CSF/CpG, Day 30 to 35
Experimental: as §1
FIG. 7: CD8^+ T cell responses as determined by interferon-γ (IFNg) ELISpot as measured against the peptides (all 5 or peptides 4, 5, 6, 8 or 9 individually) after immunization with the mixture of the 5 hZP3 peptides (peptide), or after immunization with the rhZP3^1-383 protein ZP3 (prot).
An in vivo pre-clinical efficacy study has been conducted to assess the immune response and the anti-tumor response after immunization with rhZP3 polypeptide (aa 1-383 with his-tag) and 5 different ZP3 epitopes. […]
as §2

[3] = listed as hZP3 polypeptide (aa 1-383)

B1: rhZP3 protein: rhZP3 polypeptide (aa 1-383 with his-tag), 100 μg s.c. plus GM-CSF/CpG as adjuvant (protein)
chain: QPLWLLQGGASHPETSVQPVLVECQEATLMVMVSKDLFGTGKLIRAADLTLGPEACEPLVSMDTEDVVRFEVGLHECGNSMQVTDDALVYSTFLLHDPRPVGNLSIVRTNRAEIPIECRYPRQGNVSSQAILPTWLPFRTTVFSEEKLTFSLRLMEENWNAEKRSPTFHLGDAAHLQAEIHTGSHVPLRLFVDHCVATPTPDQNASPYHTIVDFHGCLVDGLTDASSAFKVPRPGPDTLQFTVDVFHFANDSRNMIYITCHLKVTLAEQDPDELNKACSFSKPSNSWFPVEGSADICQCCNKGDCGTPSHSRRQPHVMSQWSRSASRN
For B1, the “Tumor size after treatment” value [1] was “no growth of the tumor was observed”, the “Tumor size after treatment” value [1, 3] was “no increase in tumor size was observed” and the “CD8^+ T cell response (IFNg ELISpot)” value ([2]; listed as ZP3 protein) was “a TCD8 response was observed”. For the same molecule, the “CD8^+ T cell response (IFNg ELISpot)” value [2, 3] was “induced CD8^+ T cells”.
